Measurements taken from paper PMC4017264 (Molecular Cell, 2014).
Positions count from the first letter of the chain named. Names and notes keep the numbering of the source. No end group written: not given here. *: point of attachment. FITC = O=C1OC2(c3ccc(O)cc3Oc3cc(O)ccc32)c2ccc(NC(=S)*)cc21; Ahx = NCCCCCC(=O)O

T1: HOIP PUB domain (HOIP 1-184) (Homo sapiens, UniProt Q96EP0)
T1 construct: PUB domains from HOIP (aa 1–184, red); His6 (3C-cleavable, pOPINB) (N, cleaved yes); made in house; host or cells: E. coli Rosetta2 (DE3) pLacI
T1 sequence (Q96EP0 1-184): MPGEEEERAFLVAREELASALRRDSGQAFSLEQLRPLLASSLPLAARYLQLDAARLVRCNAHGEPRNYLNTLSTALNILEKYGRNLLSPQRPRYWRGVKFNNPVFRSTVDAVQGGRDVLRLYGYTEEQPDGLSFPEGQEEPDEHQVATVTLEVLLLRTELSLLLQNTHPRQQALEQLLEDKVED

B1: HOIP: epitope-tagged HOIP, LUBAC E3 ligase component (protein, UniProt Q96EP0 1-1072, looked up)
E3 ubiquitin-protein ligase …: MPGEEEERAFLVAREELASALRRDSGQAFSLEQLRPLLASSLPLAARYLQLDAARLVRCNAHGEPRNYLNTLSTALNILEKYGRNLLSPQRPRYWRGVKFNNPVFRSTVDAVQGGRDVLRLYGYTEEQPDGLSFPEGQEEPDEHQVATVTLEVLLLRTELSLLLQNTHPRQQALEQLLEDKVEDDMLQLSEFDPLLREIAPGPLTTPSVPGSTPGPCFLCGSAPGTLHCPSCKQALCPACDHLFHGHPSRAHHLRQTLPGVLQGTHLSPSLPASAQPRPQSTSLLALGDSSLSSPNPASAHLPWHCAACAMLNEPWAVLCVACDRPRGCKGLGLGTEGPQGTGGLEPDLARGRWACQSCTFENEAAAVLCSICERPRLAQPPSLVVDSRDAGICLQPLQQGDALLASAQSQVWYCIHCTFCNSSPGWVCVMCNRTSSPIPAQHAPRPYASSLEKGPPKPGPPRRLSAPLPSSCGDPEKQRQDKMREEGLQLVSMIREGEAAGACPEEIFSALQYSGTEVPLQWLRSELPYVLEMVAELAGQQDPGLGAFSCQEARRAWLDRHGNLDEAVEECVRTRRRKVQELQSLGFGPEEGSLQALFQHGGDVSRALTELQRQRLEPFRQRLWDSGPEPTPSWDGPDKQSLVRRLLAVYALPSWGRAELALSLLQETPRNYELGDVVEAVRHSQDRAFLRRLLAQECAVCGWALPHNRMQALTSCECTICPDCFRQHFTIALKEKHITDMVCPACGRPDLTDDTQLLSYFSTLDIQLRESLEPDAYALFHKKLTEGVLMRDPKFLWCAQCSFGFIYEREQLEATCPQCHQTFCVRCKRQWEEQHRGRSCEDFQNWKRMNDPEYQAQGLAMYLQENGIDCPKCKFSYALARGGCMHFHCTQCRHQFCSGCYNAFYAKNKCPEPNCRVKKSLHGHHPRDCLFYLRDWTALRLQKLLQDNNVMFNTEPPAGARAVPGGGCRVIEQKEVPNGLRDEACGKETPAGYAGLCQAHYKEYLVSLINAHSLDPATLYEVEELETATERYLHVRPQPLAGEDPPAYQARLLQKLTEEVPLGQSIPRRRK
modifications: epitope tag
B2: N102D: V5-tagged HOIP with point mutation N102D in the PUB binding site (protein, UniProt Q96EP0 1-1072, looked up, variant N102D)
E3 ubiquitin-protein ligase …: B1 E3 ubiquitin-protein ligase … with N102D
modifications: V5 tag
B3: K99E: V5-tagged HOIP with point mutation K99E in the PUB binding site (protein)
chain: B1 E3 ubiquitin-protein ligase … with K99E
modifications: left off: V5, end not stated, kept
B4: Y82F: V5-tagged HOIP with point mutation Y82F in the PUB binding site (protein, UniProt Q96EP0 1-1072, looked up, variant Y82F)
E3 ubiquitin-protein ligase …: B1 E3 ubiquitin-protein ligase … with Y82F
modifications: V5 tag
B5: Y82A: V5-tagged HOIP with point mutation Y82A in the PUB binding site (protein)
chain: B1 E3 ubiquitin-protein ligase … with Y82A
modifications: left off: V5, end not stated, kept
B6: N-terminal 185 amino acids (aa) spanning the PUB domain of HOIP: HOIP truncation (protein, UniProt Q96EP0 1-185, looked up, fragment)
chain: MPGEEEERAFLVAREELASALRRDSGQAFSLEQLRPLLASSLPLAARYLQLDAARLVRCNAHGEPRNYLNTLSTALNILEKYGRNLLSPQRPRYWRGVKFNNPVFRSTVDAVQGGRDVLRLYGYTEEQPDGLSFPEGQEEPDEHQVATVTLEVLLLRTELSLLLQNTHPRQQALEQLLEDKVEDD
B7: aa 1–436: HOIP construct aa 1–436, also including B box and NZF domains (protein, UniProt Q96EP0 1-436, looked up, fragment)
chain: MPGEEEERAFLVAREELASALRRDSGQAFSLEQLRPLLASSLPLAARYLQLDAARLVRCNAHGEPRNYLNTLSTALNILEKYGRNLLSPQRPRYWRGVKFNNPVFRSTVDAVQGGRDVLRLYGYTEEQPDGLSFPEGQEEPDEHQVATVTLEVLLLRTELSLLLQNTHPRQQALEQLLEDKVEDDMLQLSEFDPLLREIAPGPLTTPSVPGSTPGPCFLCGSAPGTLHCPSCKQALCPACDHLFHGHPSRAHHLRQTLPGVLQGTHLSPSLPASAQPRPQSTSLLALGDSSLSSPNPASAHLPWHCAACAMLNEPWAVLCVACDRPRGCKGLGLGTEGPQGTGGLEPDLARGRWACQSCTFENEAAAVLCSICERPRLAQPPSLVVDSRDAGICLQPLQQGDALLASAQSQVWYCIHCTFCNSSPGWVCVMCNRTS
B8: HOIL-1: epitope-tagged HOIL-1, LUBAC component (protein)
chain: MDEKTKKAEEMALSLTRAVAGGDEQVAMKCAIWLAEQRVPLSVQLKPEVSPTQDIRLWVSVEDAQMHTVTIWLTVRPDMTVASLKDMVFLDYGFPPVLQQWVIGQRLARDQETLHSHGVRQNGDSAYLYLLSARNTSLNPQELQRERQLRMLEDLGFKDLTLQPRGPLEPGPPKPGVPQEPGRGQPDAVPEPPPVGWQCPGCTFINKPTRPGCEMCCRARPEAYQVPASYQPDEEERARLAGEEEALRQYQQRKQQQQEGNYLQHVQLDQRSLVLNTEPAECPVCYSVLAPGEAVVLRECLHTFCRECLQGTIRNSQEAEVSCPFIDNTYSCSGKLLEREIKALLTPEDYQRFLDLGISIAENRSAFSYHCKTPDCKGWCFFEDDVNEFTCPVCFHVNCLLCKAIHEQMNCKEYQEDLALRAQNDVAARQTTEMLKVMLQQGEAMRCPQCQIVVQKKDGCDWIRCTVCHTEICWVTKGPRWGPGGPGDTSGGCRCRVNGIPCHPSCQNCH

The molecules below were run against T1, HOIP PUB domain (HOIP 1-184) (assay: fluorescence polarization binding of FITC-Ahx peptides to HOIP PUB domain). Conditions: not given.
Protocol: Serially diluted PUB domains and HOIP variants were mixed with an equal volume of 100 nM FITC-Ahx-labeled peptides of OTULIN and p97. Fluorescence polarization was recorded on a PheraStar plate reader (BMG LABTECH) and fitted to a one-site binding model with GraphPad Prism 5.
Fluorescence polarization binding assays
10 µl of 100 nM FITC-Ahx peptides of either OTULIN (49-67) or p97 (797-806) were aliquoted into a 384-well low volume plate (Corning). Serial dilutions of HOIP PUB into FP assay buffer (20 mM Tris pH 7.4, 100 mM NaCl, 1 mM DTT) were prepared and 10 µl of this was aliquoted to FITC-Ahx peptide-containing wells. Fluorescence polarization was recorded on a PheraStar plate reader (BMG Labtech) using an optics module with $ex = 485 nm and $em = 520 nm. To derive binding constants (KD), polarization values were fitted to a one-site binding model using Graphpad Prism 5. […]

binding to HOIP PUB domain (in words) | Molecule
abrogated binding | M55D: fluorescently labeled OTULIN peptide (aa 49–67) with point mutation M55D ({FITC-Ahx}-AEHEEDDYRAADEIEKEKE)
abrogated binding | Y56A: fluorescently labeled OTULIN peptide (aa 49–67) with point mutation Y56A ({FITC-Ahx}-AEHEEDMARAADEIEKEKE; UniProt Q96BN8 49-67, looked up, variant Y56A)

Same assay, conditions: OTULIN peptide point mutants

reduction of HOIP binding versus wild-type OTULIN peptide [fold] | Molecule
100 | Y56W: fluorescently labeled OTULIN peptide (aa 49–67) with point mutation Y56W ({FITC-Ahx}-AEHEEDMWRAADEIEKEKE)
60 | D54A: fluorescently labeled OTULIN peptide (aa 49–67) with point mutation D54A ({FITC-Ahx}-AEHEEAMYRAADEIEKEKE)

These molecules were tested on endogenous OTULIN (assay: coimmunoprecipitation of endogenous OTULIN with tagged HOIP/HOIL-1). Conditions: tagged HOIP/HOIL-1 constructs, HEK293T or U2OS/NOD2 cells, western blot.
Type: cell-based
Protocol: Transfected HEK293T or U2OS and NOD2 cells were lysed in the presence of protease and phosphatase inhibitors. Clarified lysates were incubated overnight with anti-V5 and anti-HA-agarose resin. […]
siOTULIN: […], siMM […]
Immunoprecipitation of HOIP-V5 and HA-OTULIN
HEK293T or U2OS/NOD2 cells were transfected as indicated. The cells were lysed in IP buffer buffer (25 mM HEPES pH 7.4, 150 mM KCl, 2 mM MgCl2, 1 mM EGTA, 0.5% (v/v) Triton X-100) supplemented with 5 mM NEM (Sigma-Aldrich), cOmplete protease inhibitor cocktail (Roche) and PhosSTOP
(Roche). After 30 minutes on ice, the lysates were cleared by centrifugation and incubated overnight at 4 °C with anti-V5-agarose resin or anti-HA-agarose resin. The beads were washed four times in ice-cold IP buffer and the precipitated material was eluted with 0.2 M glycine, pH 2.5. […]

Molecule | coimmunoprecipitation of endogenous OTULIN (in words)
B1 | copurified endogenous OTULIN
B2 | abrogated OTULIN binding
B3 | decreased binding
B4 | decreased binding
B5 | abrogated OTULIN binding
B6 | sufficient to coimmunoprecipitate endogenous OTULIN
B7 | OTULIN interaction was increased
B8 | OTULIN interacts with HOIP but not HOIL-1

Same assay, conditions: tagged HOIP/HOIL-1 constructs, HEK293T or U2OS/NOD2 cells, western blot; listed as wild-type HOIP

Molecule | coimmunoprecipitation of endogenous OTULIN (in words)
B1 | coprecipitated OTULIN
